Measurements: paper PMC4188581 (2014)

Biological target: CDK2 (Homo sapiens, UniProt P24941)
Assay: SPR

B1: LAALS peptide (peptide)
chain: LAALS
modifications: 60 uM ATP
With B1 the Kd was 61 µM.
